In publication PMC9888386 (The Journal of Clinical Investigation, 2023) one finds Kd data, which are given here for one molecule.

In this test the target is T1, KEAP1 (microscale thermophoresis assay) (UniProt Q14145 1-624).
T1 construct: KEAP1 as used in the microscale thermophoresis assay; May be the same as GST-KEAP1-WT
As to the kind of experiment: MST; microscale thermophoresis; conditions in the Supplemental Methods, not shown. On the technique in general: Microscale thermophoresis detects binding through changes in fluorescence in a small temperature gradient.

T1 sequence (Q14145 whole entry): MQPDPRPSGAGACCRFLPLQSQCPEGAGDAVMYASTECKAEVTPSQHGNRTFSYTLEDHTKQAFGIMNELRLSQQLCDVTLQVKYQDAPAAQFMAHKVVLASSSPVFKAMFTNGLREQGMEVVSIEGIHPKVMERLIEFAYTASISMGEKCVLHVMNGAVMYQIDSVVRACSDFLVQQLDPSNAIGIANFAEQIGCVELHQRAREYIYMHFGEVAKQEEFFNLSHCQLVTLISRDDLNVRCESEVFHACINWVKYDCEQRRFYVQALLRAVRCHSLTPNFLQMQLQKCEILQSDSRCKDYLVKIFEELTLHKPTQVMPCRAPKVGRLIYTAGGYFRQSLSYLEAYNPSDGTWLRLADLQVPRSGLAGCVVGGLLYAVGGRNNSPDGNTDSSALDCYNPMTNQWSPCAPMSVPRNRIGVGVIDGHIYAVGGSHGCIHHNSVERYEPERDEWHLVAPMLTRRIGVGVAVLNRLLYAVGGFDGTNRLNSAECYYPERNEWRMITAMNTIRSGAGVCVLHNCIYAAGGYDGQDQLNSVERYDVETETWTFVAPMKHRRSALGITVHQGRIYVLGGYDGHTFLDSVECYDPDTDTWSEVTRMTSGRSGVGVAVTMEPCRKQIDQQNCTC

B1: truncated NRF2 (NRF2^ΔDLG) (natural protein)
chain: MMDLELPPPGLPSQQDMDLIDILWRQDIVSREVFDFSQRRKEYELEKQKKLEKERQEQLQKEQEKAFFAQLQLDEETGEFLPIQPAQHIQSETSGSANYSQVAHIPKSDALYFDDCMQLLAQTFPFVDDNEVSSATFQSLVPDIPGHIESPVFIATNQAQSPETSVAQVAPVDLDGMQQDIEQVWEELLSIPELQCLNIENDKLVETTMVPSPEAKLTEVDNYHFYSSIPSMEKEVGNCSPHFLNAFEDSFSSILSTEDPNQLTVNSLNSDATVNTDFGDEFYSAFIAEPSISNSMPSPATLSHSLSELLNGPIDVSDLSLCKAFNQNHPESTAEFNDSDSGISLNTSPSVASPEHSVESSSYGDTLLGLSDSEVEELDSAPGSVKQNGPKTPVHSSGDMVQPLSPSQGQSTHVHDAQCENTPEKELPVSPGHRKTPFTKDKHSSRLEAHLTRDELRAKALHIPFPVEKIINLPVVDFNEMMSKEQFNEAQLALIRDIRRRGKNKVAAQNCRKRKLENIVELEQDLDHLKDEKEKLLKEKGENDKSLHLLKKQLSTLYLEVFSMLRDEDGKPYSPSEYSLQQTRDGNVFLVPKSKKPDVKKN
B1 had a Kd of 5.28 µM.

For orientation: Kd means a measure of binding affinity in units of concentration. A lower Kd goes with a tighter complex.
